Test results taken from the RNAGym collection of RNA variant scans (doi:10.1021/acssynbio.7b00057).

B1: Pistol ribozyme (parent)
chain: GGGUCGUUGUUCCAUAAUCGCGUGGAUAUGGCACGCAAGUUUCUACCGGGCACCGUAAAUGUCCGACUGGAGCCGUUCGGGCGGCUAUAAACAGACCUCAGGCCCGAAGCGUGGCGGCACCUGCCGCCGGUGGUAAAAAAGAUCGGAAGAGCACACGUCU

Variants of: B1
Assay: aptazyme ON/OFF ratio, guanine; higher = stronger switching; co-transcriptional cleavage with and without guanine

Point of comparison: GGGUCGUCGGUCUAUAAUCGCGUGGAUAUGGCACGCAAGUUUCUACCGGGCACCGUAAAUGUCCGACUGGAGCCGUUCGGGCGGCUAUAAACAGACCUCAGGCCCGAAGCGUGGCGGCACCUGCCGCCGGUGGUAAAAAAGAUCGGAAGAGCACACGUCU, “aptazyme ON/OFF ratio” value 1.37. Against it:
- GGGUCGUCGGCGGAUAAUCGCGUGGAUAUGGCACGCAAGUUUCUACCGGGCACCGUAAAUGUCCGACUGGAGCCGUUCGGGCGGCUAUAAACAGACCUCAGGCCCGAAGCGUGGCGGCACCUGCCGCCGGUGGUAAAAAAGAUCGGAAGAGCACACGUCU — lower, 1.17
- GGGUCGUCGGCGUAUAAUCGCGUGGAUAUGGCACGCAAGUUUCUACCGGGCACCGUAAAUGUCCGACUGGAGCCGUUCGGGCGGCUAUAAACAGACCUCAGGCCCGAAGCGUGGCGGCACCUGCCGCCGGUGGUAAAAAAGAUCGGAAGAGCACACGUCU — lower, 1.32
- GGGUCGUCGGCGAAUAAUCGCGUGGAUAUGGCACGCAAGUUUCUACCGGGCACCGUAAAUGUCCGACUGGAGCCGUUCGGGCGGCUAUAAACAGACCUCAGGCCCGAAGCGUGGCGGCACCUGCCGCCGGUGGUAAAAAAGAUCGGAAGAGCACACGUCU — lower, 1.18
- GGGUCGUCGGAUAAUAAUCGCGUGGAUAUGGCACGCAAGUUUCUACCGGGCACCGUAAAUGUCCGACUGGAGCCGUUCGGGCGGCUAUAAACAGACCUCAGGCCCGAAGCGUGGCGGCACCUGCCGCCGGUGGUAAAAAAGAUCGGAAGAGCACACGUCU — lower, 1.35
- GGGUCGUCGGAUGAUAAUCGCGUGGAUAUGGCACGCAAGUUUCUACCGGGCACCGUAAAUGUCCGACUGGAGCCGUUCGGGCGGCUAUAAACAGACCUCAGGCCCGAAGCGUGGCGGCACCUGCCGCCGGUGGUAAAAAAGAUCGGAAGAGCACACGUCU — lower, 1.12
- GGGUCGUCGGAUUAUAAUCGCGUGGAUAUGGCACGCAAGUUUCUACCGGGCACCGUAAAUGUCCGACUGGAGCCGUUCGGGCGGCUAUAAACAGACCUCAGGCCCGAAGCGUGGCGGCACCUGCCGCCGGUGGUAAAAAAGAUCGGAAGAGCACACGUCU — lower, 1.25
- GGGUCGUCGGAAAAUAAUCGCGUGGAUAUGGCACGCAAGUUUCUACCGGGCACCGUAAAUGUCCGACUGGAGCCGUUCGGGCGGCUAUAAACAGACCUCAGGCCCGAAGCGUGGCGGCACCUGCCGCCGGUGGUAAAAAAGAUCGGAAGAGCACACGUCU — lower, 1.18
- GGGUCGUCGGAAGAUAAUCGCGUGGAUAUGGCACGCAAGUUUCUACCGGGCACCGUAAAUGUCCGACUGGAGCCGUUCGGGCGGCUAUAAACAGACCUCAGGCCCGAAGCGUGGCGGCACCUGCCGCCGGUGGUAAAAAAGAUCGGAAGAGCACACGUCU — lower, 1.15
- GGGUCGUCGGAAUAUAAUCGCGUGGAUAUGGCACGCAAGUUUCUACCGGGCACCGUAAAUGUCCGACUGGAGCCGUUCGGGCGGCUAUAAACAGACCUCAGGCCCGAAGCGUGGCGGCACCUGCCGCCGGUGGUAAAAAAGAUCGGAAGAGCACACGUCU — lower, 1.2
- GGGUCGUCGGUUCAUAAUCGCGUGGAUAUGGCACGCAAGUUUCUACCGGGCACCGUAAAUGUCCGACUGGAGCCGUUCGGGCGGCUAUAAACAGACCUCAGGCCCGAAGCGUGGCGGCACCUGCCGCCGGUGGUAAAAAAGAUCGGAAGAGCACACGUCU — lower, 1.36
- GGGUCGUCGGACAAUAAUCGCGUGGAUAUGGCACGCAAGUUUCUACCGGGCACCGUAAAUGUCCGACUGGAGCCGUUCGGGCGGCUAUAAACAGACCUCAGGCCCGAAGCGUGGCGGCACCUGCCGCCGGUGGUAAAAAAGAUCGGAAGAGCACACGUCU — lower, 1.26
- GGGUCGUCGGACUAUAAUCGCGUGGAUAUGGCACGCAAGUUUCUACCGGGCACCGUAAAUGUCCGACUGGAGCCGUUCGGGCGGCUAUAAACAGACCUCAGGCCCGAAGCGUGGCGGCACCUGCCGCCGGUGGUAAAAAAGAUCGGAAGAGCACACGUCU — lower, 1.18
- GGGUCGUCGGACGAUAAUCGCGUGGAUAUGGCACGCAAGUUUCUACCGGGCACCGUAAAUGUCCGACUGGAGCCGUUCGGGCGGCUAUAAACAGACCUCAGGCCCGAAGCGUGGCGGCACCUGCCGCCGGUGGUAAAAAAGAUCGGAAGAGCACACGUCU — lower, 1.19
- GGGUCGUCGGAGGAUAAUCGCGUGGAUAUGGCACGCAAGUUUCUACCGGGCACCGUAAAUGUCCGACUGGAGCCGUUCGGGCGGCUAUAAACAGACCUCAGGCCCGAAGCGUGGCGGCACCUGCCGCCGGUGGUAAAAAAGAUCGGAAGAGCACACGUCU — lower, 1.15
- GGGUCGUCGGAGUAUAAUCGCGUGGAUAUGGCACGCAAGUUUCUACCGGGCACCGUAAAUGUCCGACUGGAGCCGUUCGGGCGGCUAUAAACAGACCUCAGGCCCGAAGCGUGGCGGCACCUGCCGCCGGUGGUAAAAAAGAUCGGAAGAGCACACGUCU — lower, 1.18
- GGGUCGUCGGAGAAUAAUCGCGUGGAUAUGGCACGCAAGUUUCUACCGGGCACCGUAAAUGUCCGACUGGAGCCGUUCGGGCGGCUAUAAACAGACCUCAGGCCCGAAGCGUGGCGGCACCUGCCGCCGGUGGUAAAAAAGAUCGGAAGAGCACACGUCU — lower, 1.13
- GGGUCGUCGGCUCAUAAUCGCGUGGAUAUGGCACGCAAGUUUCUACCGGGCACCGUAAAUGUCCGACUGGAGCCGUUCGGGCGGCUAUAAACAGACCUCAGGCCCGAAGCGUGGCGGCACCUGCCGCCGGUGGUAAAAAAGAUCGGAAGAGCACACGUCU — lower, 1.21
- GGGUCGUCGGCACAUAAUCGCGUGGAUAUGGCACGCAAGUUUCUACCGGGCACCGUAAAUGUCCGACUGGAGCCGUUCGGGCGGCUAUAAACAGACCUCAGGCCCGAAGCGUGGCGGCACCUGCCGCCGGUGGUAAAAAAGAUCGGAAGAGCACACGUCU — higher, 2.79
- GGGUCGUCGGCGCAUAAUCGCGUGGAUAUGGCACGCAAGUUUCUACCGGGCACCGUAAAUGUCCGACUGGAGCCGUUCGGGCGGCUAUAAACAGACCUCAGGCCCGAAGCGUGGCGGCACCUGCCGCCGGUGGUAAAAAAGAUCGGAAGAGCACACGUCU — higher, 1.78
- GGGUCGUCGGUUAAUAAUCGCGUGGAUAUGGCACGCAAGUUUCUACCGGGCACCGUAAAUGUCCGACUGGAGCCGUUCGGGCGGCUAUAAACAGACCUCAGGCCCGAAGCGUGGCGGCACCUGCCGCCGGUGGUAAAAAAGAUCGGAAGAGCACACGUCU — lower, 1.21
- GGGUCGUCGGUUUAUAAUCGCGUGGAUAUGGCACGCAAGUUUCUACCGGGCACCGUAAAUGUCCGACUGGAGCCGUUCGGGCGGCUAUAAACAGACCUCAGGCCCGAAGCGUGGCGGCACCUGCCGCCGGUGGUAAAAAAGAUCGGAAGAGCACACGUCU — lower, 1.2
- GGGUCGUCGGUUGAUAAUCGCGUGGAUAUGGCACGCAAGUUUCUACCGGGCACCGUAAAUGUCCGACUGGAGCCGUUCGGGCGGCUAUAAACAGACCUCAGGCCCGAAGCGUGGCGGCACCUGCCGCCGGUGGUAAAAAAGAUCGGAAGAGCACACGUCU — lower, 1.11
- GGGUCGUCGGCAGAUAAUCGCGUGGAUAUGGCACGCAAGUUUCUACCGGGCACCGUAAAUGUCCGACUGGAGCCGUUCGGGCGGCUAUAAACAGACCUCAGGCCCGAAGCGUGGCGGCACCUGCCGCCGGUGGUAAAAAAGAUCGGAAGAGCACACGUCU — lower, 1.11
- GGGUCGUCGGCAUAUAAUCGCGUGGAUAUGGCACGCAAGUUUCUACCGGGCACCGUAAAUGUCCGACUGGAGCCGUUCGGGCGGCUAUAAACAGACCUCAGGCCCGAAGCGUGGCGGCACCUGCCGCCGGUGGUAAAAAAGAUCGGAAGAGCACACGUCU — lower, 1.32
- GGGUCGUCGGCAAAUAAUCGCGUGGAUAUGGCACGCAAGUUUCUACCGGGCACCGUAAAUGUCCGACUGGAGCCGUUCGGGCGGCUAUAAACAGACCUCAGGCCCGAAGCGUGGCGGCACCUGCCGCCGGUGGUAAAAAAGAUCGGAAGAGCACACGUCU — lower, 1.24
- GGGUCGUCGGCUGAUAAUCGCGUGGAUAUGGCACGCAAGUUUCUACCGGGCACCGUAAAUGUCCGACUGGAGCCGUUCGGGCGGCUAUAAACAGACCUCAGGCCCGAAGCGUGGCGGCACCUGCCGCCGGUGGUAAAAAAGAUCGGAAGAGCACACGUCU — lower, 1.19
- GGGUCGUCGGCUAAUAAUCGCGUGGAUAUGGCACGCAAGUUUCUACCGGGCACCGUAAAUGUCCGACUGGAGCCGUUCGGGCGGCUAUAAACAGACCUCAGGCCCGAAGCGUGGCGGCACCUGCCGCCGGUGGUAAAAAAGAUCGGAAGAGCACACGUCU — lower, 1.26
- GGGUCGUCGGAUCAUAAUCGCGUGGAUAUGGCACGCAAGUUUCUACCGGGCACCGUAAAUGUCCGACUGGAGCCGUUCGGGCGGCUAUAAACAGACCUCAGGCCCGAAGCGUGGCGGCACCUGCCGCCGGUGGUAAAAAAGAUCGGAAGAGCACACGUCU — lower, 1.08
- GGGUCGUCGGAACAUAAUCGCGUGGAUAUGGCACGCAAGUUUCUACCGGGCACCGUAAAUGUCCGACUGGAGCCGUUCGGGCGGCUAUAAACAGACCUCAGGCCCGAAGCGUGGCGGCACCUGCCGCCGGUGGUAAAAAAGAUCGGAAGAGCACACGUCU — lower, 1.32
- GGGUCGUCGGAGCAUAAUCGCGUGGAUAUGGCACGCAAGUUUCUACCGGGCACCGUAAAUGUCCGACUGGAGCCGUUCGGGCGGCUAUAAACAGACCUCAGGCCCGAAGCGUGGCGGCACCUGCCGCCGGUGGUAAAAAAGAUCGGAAGAGCACACGUCU — lower, 1.23
- GGGUCGUCGGCCCAUAAUCGCGUGGAUAUGGCACGCAAGUUUCUACCGGGCACCGUAAAUGUCCGACUGGAGCCGUUCGGGCGGCUAUAAACAGACCUCAGGCCCGAAGCGUGGCGGCACCUGCCGCCGGUGGUAAAAAAGAUCGGAAGAGCACACGUCU — lower, 1.1
- GGGUCGUCGGACCAUAAUCGCGUGGAUAUGGCACGCAAGUUUCUACCGGGCACCGUAAAUGUCCGACUGGAGCCGUUCGGGCGGCUAUAAACAGACCUCAGGCCCGAAGCGUGGCGGCACCUGCCGCCGGUGGUAAAAAAGAUCGGAAGAGCACACGUCU — lower, 1.07
- GGGUCGUCGGUCAAUAAUCGCGUGGAUAUGGCACGCAAGUUUCUACCGGGCACCGUAAAUGUCCGACUGGAGCCGUUCGGGCGGCUAUAAACAGACCUCAGGCCCGAAGCGUGGCGGCACCUGCCGCCGGUGGUAAAAAAGAUCGGAAGAGCACACGUCU — lower, 1.27
- GGGUCGUCGGUCGAUAAUCGCGUGGAUAUGGCACGCAAGUUUCUACCGGGCACCGUAAAUGUCCGACUGGAGCCGUUCGGGCGGCUAUAAACAGACCUCAGGCCCGAAGCGUGGCGGCACCUGCCGCCGGUGGUAAAAAAGAUCGGAAGAGCACACGUCU — lower, 1.15
- GGGUCGUCGGUGUAUAAUCGCGUGGAUAUGGCACGCAAGUUUCUACCGGGCACCGUAAAUGUCCGACUGGAGCCGUUCGGGCGGCUAUAAACAGACCUCAGGCCCGAAGCGUGGCGGCACCUGCCGCCGGUGGUAAAAAAGAUCGGAAGAGCACACGUCU — lower, 1.12
